These results are taken from the supplement of paper PMC10567573.

The chains are these.
B1: FBXO3 (parent)
chain: GGFPIIRDQIFRYVHDPECVATTG
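Note: lentivirally expressed fusions sorted by FACS into six bins by GFP to DsRed ratio, PSI derived from sequencing read proportions per bin multiplied by bin number.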

Variants of B1 are the subject of the series. Put plainly: protein stability index of a GFP-peptide fusion (GPS, HEK-293T) (PSI 1-6); higher = more stable. The note with it: c terminus: a fixed tail appended.
Turning to GGFPIISDQIFRYVHDPECVATTG, the protein stability index was 2.45.

As for GGFPIIHDQIFRYVHDPECVATTG, the protein stability index was 2.56.

On to GGFPIIPDQIFRYVHDPECVATTG, for which the protein stability index was 2.47.

On to GGFPIIKDQIFRYVHDPECVATTG, for which the protein stability index is 2.4.

As for GGFPIIIDQIFRYVHDPECVATTG, the protein stability index came out at 1.69.

For GGFPIINDQIFRYVHDPECVATTG, the protein stability index came to 2.83.

GGFPIIWDQIFRYVHDPECVATTG: the protein stability index amounted to 2.21.

With GGFPIIQDQIFRYVHDPECVATTG, the protein stability index is 3.09.

Turning to GGFPIIYDQIFRYVHDPECVATTG, the protein stability index was 1.87.

Regarding GGFPIITDQIFRYVHDPECVATTG, the protein stability index came out at 2.72.

For the variant GGFPIILDQIFRYVHDPECVATTG, the protein stability index worked out at 1.32.

Regarding GGFPIIMDQIFRYVHDPECVATTG, the protein stability index was found to be 1.53.

As for GGFPIIVDQIFRYVHDPECVATTG, the protein stability index worked out at 1.73.

As for GGFPIIRVQIFRYVHDPECVATTG, the protein stability index turned out to be 2.54.

With GGFPIIRAQIFRYVHDPECVATTG, the protein stability index was 2.14.

GGFPIIRPQIFRYVHDPECVATTG: the protein stability index worked out at 1.27.

Take GGFPIIRYQIFRYVHDPECVATTG: the protein stability index came to 3.32.

GGFPIIRKQIFRYVHDPECVATTG: the protein stability index was 2.39.

Regarding GGFPIIRNQIFRYVHDPECVATTG, the protein stability index is 1.54.

GGFPIIRQQIFRYVHDPECVATTG: the protein stability index turned out to be 1.7.

As for GGFPIIRIQIFRYVHDPECVATTG, the protein stability index was determined as 3.17.

As to GGFPIIRTQIFRYVHDPECVATTG, the protein stability index was 1.24.

For the variant GGFPIIRRQIFRYVHDPECVATTG, the protein stability index turned out to be 3.49.

Regarding GGFPIIRSQIFRYVHDPECVATTG, the protein stability index turned out to be 1.61.

Take GGFPIIREQIFRYVHDPECVATTG: the protein stability index is 1.52.

With GGFPIIRDQIDRYVHDPECVATTG, the protein stability index worked out at 3.94.

In the case of GGFPIIRDQIGRYVHDPECVATTG, the protein stability index came out at 3.48.

For the variant GGFPIIRDQIVRYVHDPECVATTG, the protein stability index is 3.18.

Regarding GGFPIIRDQIPRYVHDPECVATTG, the protein stability index was determined as 3.38.

For GGFPIIRDQISRYVHDPECVATTG, the protein stability index stood at 3.45.

Turning to GGFPIIRDQIIRYVHDPECVATTG, the protein stability index was determined as 2.45.

For the variant GGFPIIRDQIWRYVHDPECVATTG, the protein stability index stood at 1.9.

In the case of GGFPIIRDQIYRYVHDPECVATTG, the protein stability index was determined as 2.76.

As to GGFPIIRDQIHRYVHDPECVATTG, the protein stability index turned out to be 4.01.

On to GGFPIIRDQIMRYVHDPECVATTG, for which the protein stability index came out at 2.78.

In the case of GGFPIIRDQIARYVHDPECVATTG, the protein stability index amounted to 3.59.

On to GGFPIIRDQITRYVHDPECVATTG, for which the protein stability index amounted to 3.35.

On to GGFPIIRDQILRYVHDPECVATTG, for which the protein stability index was found to be 3.02.

For GGFPIIRDQINRYVHDPECVATTG, the protein stability index came to 3.67.

Consider GGFPIIRDQIKRYVHDPECVATTG, for which the protein stability index is 2.85.

Regarding GGFPIIRDQIQRYVHDPECVATTG, the protein stability index is 3.1.

With GGFPIIRDQICRYVHDPECVATTG, the protein stability index was found to be 2.92.

Take GGFPIIRDQIERYVHDPECVATTG: the protein stability index was found to be 3.58.

On to GGFPIIRDQIRRYVHDPECVATTG, for which the protein stability index was found to be 2.89.

For GGFPIIRDQQFRYVHDPECVATTG, the protein stability index is 2.75.

Regarding GGFPIIRDQMFRYVHDPECVATTG, the protein stability index is 2.44.

For GGFPIIRDQCFRYVHDPECVATTG, the protein stability index worked out at 2.19.

Turning to GGFPIIRDQDFRYVHDPECVATTG, the protein stability index turned out to be 3.6.

With GGFPIIRDQHFRYVHDPECVATTG, the protein stability index stood at 3.27.

Regarding GGFPIIRDQNFRYVHDPECVATTG, the protein stability index worked out at 3.3.

For the variant GGFPIIRDQRFRYVHDPECVATTG, the protein stability index worked out at 2.17.

With GGFPIIRDQSFRYVHDPECVATTG, the protein stability index was 3.22.

GGFPIIRDQYFRYVHDPECVATTG: the protein stability index is 2.57.

As to GGFPIIRDQEFRYVHDPECVATTG, the protein stability index worked out at 3.66.

For the variant GGFPIIRDQWFRYVHDPECVATTG, the protein stability index is 1.74.

Consider GGFPIIRDQVFRYVHDPECVATTG, for which the protein stability index was determined as 2.36.

For GGFPIIRDQKFRYVHDPECVATTG, the protein stability index worked out at 3.07.

As for GGFPIIRDQAFRYVHDPECVATTG, the protein stability index came out at 2.38.

Turning to GGFPIIRDQTFRYVHDPECVATTG, the protein stability index was determined as 2.54.

GGFPIIRDQGFRYVHDPECVATTG: the protein stability index amounted to 2.04.

As to GGFPIIRDQFFRYVHDPECVATTG, the protein stability index was found to be 2.13.

With GGFPIIRDQPFRYVHDPECVATTG, the protein stability index was 2.6.

Regarding GGFPIIRDQLFRYVHDPECVATTG, the protein stability index is 2.17.

As for GGFPIIRDQIFMYVHDPECVATTG, the protein stability index is 1.35.

Regarding GGFPIIRDQIFHYVHDPECVATTG, the protein stability index amounted to 2.69.

GGFPIIRDQIFLYVHDPECVATTG: the protein stability index amounted to 1.64.

With GGFPIIRDQIFIYVHDPECVATTG, the protein stability index turned out to be 2.63.

In the case of GGFPIIRDQIFDYVHDPECVATTG, the protein stability index turned out to be 3.21.

GGFPIIRDQIFNYVHDPECVATTG: the protein stability index was determined as 3.01.

Regarding GGFPIIRDQIFCYVHDPECVATTG, the protein stability index worked out at 1.75.

As to GGFPIIRDQIFFYVHDPECVATTG, the protein stability index turned out to be 1.92.

As to GGFPIIRDQIFEYVHDPECVATTG, the protein stability index came to 3.39.

With GGFPIIRDQIFAYVHDPECVATTG, the protein stability index worked out at 2.3.

For GGFPIIRDQIFKYVHDPECVATTG, the protein stability index came to 2.67.

For the variant GGFPIIRDQIFGYVHDPECVATTG, the protein stability index was 3.12.

Consider GGFPIIRDQIFPYVHDPECVATTG, for which the protein stability index was 2.82.

As to GGFPIIRDFIFRYVHDPECVATTG, the protein stability index turned out to be 2.43.

Turning to GGFPIIRDGIFRYVHDPECVATTG, the protein stability index came out at 1.75.

In the case of GGFPIIRDKIFRYVHDPECVATTG, the protein stability index is 1.75.

Turning to GGFPIIRDHIFRYVHDPECVATTG, the protein stability index was 1.64.

Regarding GGFPIIRDSIFRYVHDPECVATTG, the protein stability index is 1.8.

GGFPIIRDNIFRYVHDPECVATTG: the protein stability index stood at 2.29.

For GGFPIIRDVIFRYVHDPECVATTG, the protein stability index was 2.95.

Turning to GGFPIIRDEIFRYVHDPECVATTG, the protein stability index is 2.09.

Take GGFPIIRDWIFRYVHDPECVATTG: the protein stability index came out at 2.29.

Take GGFPIIRDTIFRYVHDPECVATTG: the protein stability index stood at 1.58.

Take GGFPIIRDDIFRYVHDPECVATTG: the protein stability index is 2.83.

For GGFPIIRDIIFRYVHDPECVATTG, the protein stability index amounted to 1.9.

Regarding GGFPIIRDRIFRYVHDPECVATTG, the protein stability index is 2.18.

Turning to GGFPIIRDPIFRYVHDPECVATTG, the protein stability index was determined as 2.65.

In the case of GGFPIIRDAIFRYVHDPECVATTG, the protein stability index was 2.13.

Regarding GGFPIIRDLIFRYVHDPECVATTG, the protein stability index came out at 2.08.

Take GGFPIIRDCIFRYVHDPECVATTG: the protein stability index was 1.87.

Turning to GGFPIIRDYIFRYVHDPECVATTG, the protein stability index turned out to be 2.13.
